These results are taken from patent publication US20170101472A1 (Regeneron, published 2017).

Assay [1] concerns the target T1, monkey LAG3 (mfLAG3) expressed on HEK293 cells (cynomolgus monkey, UniProt P18627 24-525 (human entry)).
T1 construct: also called HEK293/mfLAG3; HEK293-mfLAG3
T1 chain: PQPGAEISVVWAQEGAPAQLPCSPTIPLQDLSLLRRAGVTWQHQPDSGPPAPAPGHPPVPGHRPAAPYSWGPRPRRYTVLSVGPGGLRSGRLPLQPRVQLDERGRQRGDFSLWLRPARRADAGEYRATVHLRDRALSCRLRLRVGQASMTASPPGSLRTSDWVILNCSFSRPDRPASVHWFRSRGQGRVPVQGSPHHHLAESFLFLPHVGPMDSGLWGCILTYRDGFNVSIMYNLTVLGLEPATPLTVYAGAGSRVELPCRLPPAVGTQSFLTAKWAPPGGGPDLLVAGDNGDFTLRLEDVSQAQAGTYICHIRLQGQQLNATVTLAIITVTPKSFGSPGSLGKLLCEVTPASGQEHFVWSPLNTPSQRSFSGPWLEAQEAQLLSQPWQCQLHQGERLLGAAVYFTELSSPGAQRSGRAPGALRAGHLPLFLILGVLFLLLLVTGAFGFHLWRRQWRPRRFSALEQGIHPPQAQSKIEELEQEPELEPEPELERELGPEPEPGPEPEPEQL
Kind of assay: electrochemiluminescence cell binding. How it is done:
(§1) To investigate the ability of a panel of anti-LAG3 monoclonal antibodies to bind cell-surface expressed LAG3, an in vitro binding assay utilizing human and monkey LAG3 expressing cell lines in an electrochemiluminescence based detection platform [Meso Scale Diagnostics, Rockville, Md.—(MSD)] was developed.
(§2) Experiments were carried out according to following procedure. Cells from the three cell lines described above were rinsed once in 1×PBS buffer without Ca²⁺/Mg²⁺ followed by 10-minute incubation at 37° C. with Enzyme Free Cell Dissociation Solution. […] Approximately 10,000 cells per well in the cell-washing buffer were seeded into the 96-well carbon electrode plates (MULTI-ARRAY high bind plate, MSD) and incubated for 1 hour at 37° C. to allow the cells to adhere. Nonspecific binding sites were blocked by 2% BSA (w/v) in PBS for 1 hour at room temperature. […] The plates were then washed to remove the unbound antibodies using an AquaMax2000 plate washer (MDS Analytical Technologies). The plate-bound antibodies were detected with a SULFO-TAG™-conjugated anti-human IgG antibody (MSD) for 1 hour at room temperature. After washes, the plates were developed with the Read Buffer (MSD) according to manufacturer's recommended procedure and the luminescent signals were recorded with a SECTOR Imager 6000 (MSD) instrument. The direct binding signals (in relative light units—RLU) were analyzed as a function of the antibody concentration and the data were fitted with a sigmoidal (four-parameter logistic) dose-response model using Graph Pad Prism™ software. The potency of each antibody was determined by calculating EC₅₀.

In assay [2] the target is T1, monkey LAG3 (mfLAG3) expressed on …. Kind of assay: flow cytometry, HEK293/mfLAG3 cells. How it is done:
(§3) The serially diluted antibodies were added to the cell suspension and incubated for 15-30 minutes on ice. The cells were centrifuged and pellets were washed with staining buffer to remove unbound antibodies. […] The cells were centrifuged and pellets were washed with staining buffer to remove unbound secondary F(ab′)2 and fixed overnight with a 1:1 dilution of Cytofix (BD Biosciences, #554655) and staining buffer. Following day, fixed cells were centrifuged and pellets were washed with staining buffer, resuspended and filtered. Fluorescence measurements were acquired on HyperCyt® cytometer and analyzed in ForeCyt™ (IntelliCyt; Albuquerque, N. Mex.) to determine the mean fluorescence intensities (MFI). The EC₅₀ values were calculated from a four-parameter logistic equation over an 11-point response curve using GraphPad Prism. EC₅₀ was defined as the concentration of antibody at which 50% of maximal binding signal is detected. The MFI ratio for each antibody was calculated by dividing the MFI at 100 nM by MFI at 0 nM of antibody concentration.

For assay [3] the target is unchanged. Kind of assay: electrochemiluminescence cell binding, HEK293-mfLAG3. How it is done: as §1, §2
The target is the same in assay [4]. Kind of assay: flow cytometry, HEK293/mfLAG3 cells; FACS on HEK293/mfLAG3 cells; MFI ratio 100 nM/0 nM. How it is done: as §3
For assay [5] the target is unchanged. Kind of assay: flow cytometry, HEK293/mfLAG3 cells; FACS on HEK293/mfLAG3 cells. How it is done:
as §3

B1: H4sH15498P2 (antibody, V domains shown)
VH: EVQLVESGGGLVQPGGSLRLSCAASGFTFTSYAMTWVRQAPGKGLEWVSDISGSGGRTYYADSVKGRFTISRDNSKNMLYLQMNILRAEDTAVYHCAKGTGQQVDLYNYYYALDVWGQGTTVTVSS
VL: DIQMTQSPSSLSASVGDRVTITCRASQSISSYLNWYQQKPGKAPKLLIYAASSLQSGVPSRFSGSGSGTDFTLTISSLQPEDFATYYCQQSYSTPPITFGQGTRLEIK
notes: H4sH = human IgG4 Fc with 2 or more amino acid changes as disclosed in US20140243504
For B1, in assay [1], the “Ratio of 100 nM antibody binding HEK293-mfLAG3 to HEK293 cells” value (from here on “Ratio … to HEK293 cells”) turned out to be 32.7. The half-maximal effective concentration (EC50) is greater than 10 nM in assay [2] and 20 nM in assay [3]. In assay [2], the “Ratio of MFI (100 nM/0 nM)” value worked out at 12.1.

B2: H4H15498P2 (antibody, human IgG4, V domains shown)
VH: EVQLVESGGGLVQPGGSLRLSCAASGFTFTSYAMTWVRQAPGKGLEWVSDISGSGGRTYYADSVKGRFTISRDNSKNMLYLQMNILRAEDTAVYHCAKGTGQQVDLYNYYYALDVWGQGTTVTVSS
VL: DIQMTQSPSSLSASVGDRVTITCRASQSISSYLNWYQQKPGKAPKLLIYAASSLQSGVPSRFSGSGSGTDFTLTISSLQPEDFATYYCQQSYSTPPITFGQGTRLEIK
notes: H4H = human IgG4 Fc with S108P hinge mutation
As to B2, the “Ratio … to HEK293 cells” value in assay [1] was determined as 13.8. For the same molecule, in assay [2], the EC50 was greater than 10 nM and the “Ratio of MFI (100 nM/0 nM)” value was 12.8. In assay [3], this molecule had an EC50 of 9.68 nM.

B3: H4H15479P (antibody, human IgG4, V domains shown)
VH: QVQLQQWGAGLLNPSETLSLTCAVYGGAFSDYYWNWIRQPPGKGLEWIGEINHRGSTNYNPSLKSRVTISVDTSKNQFSLRMSSVTAADAAVYYCARGEDYDIWNGYYQEKWGQGTLVTVSS
VL: EIVLTQSPATLSLSPGERATLSCRASQSISTYLAWYQQKPGQAPRLLIYDASKRATGIPARFSGSGSGTDFTLTISSLEPEDFVVYYCHQRSNWPLTFGGGTKVEIK
As for B3, the “Ratio … to HEK293 cells” value in assay [1] was determined as 2.1. Moreover, in assay [2], the concentration for a half-maximal effect (EC50) amounted to 1.35 nM and the “Ratio of MFI (100 nM/0 nM)” value came to 21.5. The molecule also gave a concentration giving a half-maximal response (EC50) in assay [3] of 73.9 nM.

B4: H4sH15479P (antibody, V domains shown)
VH: QVQLQQWGAGLLNPSETLSLTCAVYGGAFSDYYWNWIRQPPGKGLEWIGEINHRGSTNYNPSLKSRVTISVDTSKNQFSLRMSSVTAADAAVYYCARGEDYDIWNGYYQEKWGQGTLVTVSS
VL: EIVLTQSPATLSLSPGERATLSCRASQSISTYLAWYQQKPGQAPRLLIYDASKRATGIPARFSGSGSGTDFTLTISSLEPEDFVVYYCHQRSNWPLTFGGGTKVEIK
Take B4: the “Ratio of MFI (100 nM/0 nM)” value in assay [4] was found to be 20.7. This molecule also displayed an EC50 in assay [5] of 0.902 nM.

B5: H4H15483P (antibody, human IgG4, V domains shown)
VH: QVQLQQWGAGLLPPSETLSLICAVYGGSFSGYYWSWIRQPPGKGLEWIGEINHRGSTNYNPSLKSRATISVDTSKNQFSLKLSSVTAADTAVYYCSRGEDYYDSSGYSYYFDYWGQGTLVTVSS
VL: EIVLTQSPATLSLSPGERATLSCRASQSVSSYLAWYQQKPGQAPRLLIYDASNRATGIPARFSGSGSGTDFTLTISSLEPEDFAVYYCQQRSNWPLTFGGGTKVEIK
notes: as for B2
Regarding B5, in assay [2], the concentration for a half-maximal effect (EC50) was greater than 10 nM and the “Ratio of MFI (100 nM/0 nM)” value is 8.8.

B6: H4H14813N (antibody, human IgG4, V domains shown)
VH: QVQLQQWGAGLLKPSETLSLTCAVYGGSFSGYYWNWIRQPPGKGLEWVGEISHRGSTNYNPSLKSRVTISLDTSKNQFSLKLTSVTAADTAVYYCSRDEELEFRFFDYWGQGTLVTVSS
VL: EIVLTQSPATLSLSPGERATLSCRASQSVSSYLAWYQQKPGQAPRLLVYGASNRATGIPARFSGSGSGTDFTLTISSLEPEDFAFYYCQQRSNWPLTFGGGTKVEIK
notes: as for B2
B6: the “Ratio of MFI (100 nM/0 nM)” value in assay [4] stood at 17.1. In assay [5], this molecule showed an EC50 of 1.42 nM.

B7: H4H17819P (antibody, human IgG4, V domains shown)
VH: EVQLVESGGGLVQPGGSLRLSCVASGFTFSLYAMTWVRQVPGKGLEWVSTISGSGGGTYYTDSVKGRFTISRDNSKNTLYLQMNSLRADDTAVFYCTKESTTGTYSYFYGMDVWGQGTTVTVSS
VL: DIQMTQSPSSLSASVGDRVTITCRASQTISSYLNWYQQKPGKAPKLLIYAASSLQSGVPSRFSGSGSGTDFTLTLSGLQPEDFATYYCQQSYSTPLTFGGGTKVEIK
notes: as for B2
B7: the “Ratio … to HEK293 cells” value in assay [1] came out at 8.3. In assay [2], the concentration giving a half-maximal response (EC50) was greater than 10 nM and the “Ratio of MFI (100 nM/0 nM)” value was found to be 12.1. In assay [3], this molecule gave an EC50 of 40.2 nM.

B8: H4H17826P2 (antibody, human IgG4, V domains shown)
VH: EVQLVESGGGLVQPGGSLRLSCAASGFTFSSYEMNWVRQAPGKGLEWVSYISSSGNTKDYAGSVKGRVTISRDNAKNLLYLQMNSLRAEDTAVYHCARDGGHYDILTGSMSYYYYALDVWGQGTTVTVSS
VL: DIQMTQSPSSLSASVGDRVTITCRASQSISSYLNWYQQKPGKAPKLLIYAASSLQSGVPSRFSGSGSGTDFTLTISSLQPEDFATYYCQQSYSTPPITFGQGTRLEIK
notes: as for B2
For the molecule B8, the “Ratio … to HEK293 cells” value in assay [1] is 4.7. Moreover, the values for the concentration for a half-maximal effect (EC50) in assay [2] and in assay [3] were greater than 10 nM and 7.85 nM, respectively. The “Ratio of MFI (100 nM/0 nM)” value in assay [2] amounted to 14.3.

B9: H4H17828P2 (antibody, human IgG4, V domains shown)
VH: EVQLVESGGGLVQPGGSLRLSCAASGFTFKTYAMSWVRQAPGRGLEWVSGISGSGSTSYYADSVKGRFTISRDNYKKTLSLQMNSLRAEDTAVYYCALDIMATVGGLFNNWGQGTLVTVSS
VL: not shown
notes: as for B2
Regarding B9, in assay [1], the “Ratio … to HEK293 cells” value turned out to be 6. In assay [3], this molecule yielded a concentration for a half-maximal effect (EC50) of 13.1 nM.

B10: H4H15482P (antibody, human IgG4 S228P, kappa)
heavy: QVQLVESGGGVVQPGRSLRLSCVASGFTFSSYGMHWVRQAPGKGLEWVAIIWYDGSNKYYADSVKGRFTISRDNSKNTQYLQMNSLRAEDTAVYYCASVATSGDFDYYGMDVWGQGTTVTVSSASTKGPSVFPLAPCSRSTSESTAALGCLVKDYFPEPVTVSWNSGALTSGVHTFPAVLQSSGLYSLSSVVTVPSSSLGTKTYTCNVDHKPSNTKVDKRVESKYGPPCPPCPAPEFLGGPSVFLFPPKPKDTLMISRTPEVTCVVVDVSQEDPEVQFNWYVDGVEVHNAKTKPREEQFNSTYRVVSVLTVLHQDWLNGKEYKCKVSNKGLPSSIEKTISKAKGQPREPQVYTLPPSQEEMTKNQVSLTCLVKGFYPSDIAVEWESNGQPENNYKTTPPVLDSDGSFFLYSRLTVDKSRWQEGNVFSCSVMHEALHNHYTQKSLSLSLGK
light: EIVLTQSPATLSLSPGERTTLSCRASQRISTYLAWYQQKPGQAPRLLIYDASKRATGIPARFSGSGSGTGFTLTISSLEPEDFAVYYCQQRSNWPLTFGGGTKVEIKRTVAAPSVFIFPPSDEQLKSGTASVVCLLNNFYPREAKVQWKVDNALQSGNSQESVTEQDSKDSTYSLSSTLTLSKADYEKHKVYACEVTHQGLSSPVTKSFNRGEC
notes: H4H = human IgG4 Fc with S108P
B10 yielded a half-maximal effective concentration (EC50) in assay [5] of 2.2 nM.

B11: H4sH15462P (antibody, V domains shown)
VH: QVQLVQSGAEVKKPGASVKVSCKASGYTFTNYYIHWVRQAPGQGLDWMGIINPGGGNTNYAQKFLGRVTMTRDTSTTTVYMELSSLRSEDTAIYYCARENWNSYFDNWGQGTLVTVSS
VL: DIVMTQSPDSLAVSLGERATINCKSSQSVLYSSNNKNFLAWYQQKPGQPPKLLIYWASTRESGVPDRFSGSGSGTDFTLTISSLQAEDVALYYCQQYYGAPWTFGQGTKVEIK
notes: as for B1
Consider B11, for which, in assay [2], the “Ratio of MFI (100 nM/0 nM)” value is 1 and the binding result was “no binding (tested: 100 nM)”.

B12: H4H15462P (antibody, human IgG4, V domains shown)
VH: QVQLVQSGAEVKKPGASVKVSCKASGYTFTNYYIHWVRQAPGQGLDWMGIINPGGGNTNYAQKFLGRVTMTRDTSTTTVYMELSSLRSEDTAIYYCARENWNSYFDNWGQGTLVTVSS
VL: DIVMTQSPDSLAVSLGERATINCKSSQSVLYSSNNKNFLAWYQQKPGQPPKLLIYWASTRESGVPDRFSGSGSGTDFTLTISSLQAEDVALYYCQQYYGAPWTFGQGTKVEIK
notes: as for B2
Consider B12, for which, in assay [2], the “Ratio of MFI (100 nM/0 nM)” value was 2.9 and the binding result was “no binding (tested: 100 nM)”.
